Legend:
[1] = target: T1, ADI-76359; assay: SPR Carterra avidity, yeast anti-ID, *koff limit
T1 construct: anti-CD3 antibody made in CHO cells, captured by anti-human Fc
Experimental: (§1) Kinetic analysis was conducted at 25° C. in an HBSTE running buffer system (Carterra Cat #3630) using a Carterra LSA (Carterra USA, Salt Lake City, UT). The sample compartment was maintained at 20° C. for the duration of each experiment.
(§2) For antibody capture experiments, a goat anti-human Fc antibody (Jackson ImmunoResearch) was covalently coupled to an HC30M sensor chip surface via standard amine coupling (1:1 EDC:NHS) and then blocked with ethanolamine (1.0 M, pH 8.5). Covalent coupling steps were performed in 25 mM MES buffer (Carterra, Cat #3625) plus 0.05% Tween20. The anti-CD3 antibodies (100 nM in running buffer) were flowed over discrete regions of interest on the chip surface for 5 minutes. […] Dissociation of the anti-idiotype antibodies was monitored for 300s. Several blank buffer samples were injected over the entire chip surface at the start of each non-regenerative kinetic cycle. The preceding blank buffer injection was used for blank surface subtraction. At the end of each non-regenerative kinetic cycle, all surfaces were regenerated via two 30s injections of 10 mM glycine, pH 1.7.
(§3) For data processing and fitting, sensorgrams were double reference subtracted with a baseline drift correction of 4 RU. Sensorgrams were y-aligned and baseline corrected, filtered and cropped to include only the association and dissociation steps. Data was fitted to a 1:1 binding model using Carterra Kinetics Data Analysis software version 1.7.1.3055.

[2] = target: T2, ADI-26920 IgG; assay: SPR Carterra avidity, yeast anti-ID, *koff limit
T2 construct: anti-CD3 IgG
Experimental: as §1, §2, §3

[3] = target: T3, ADI-74967; assay: SPR Carterra avidity, yeast anti-ID, *koff limit
T3 construct: pH-dependent anti-CD3 antibody made in CHO cells
Experimental: as §1, §2, §3

[4] = target: T4, ADI-26921 IgG; assay: SPR Carterra avidity, yeast anti-ID, *koff limit
T4 construct: anti-CD3 IgG
Experimental: as §1, §2, §3

[5] = target: T5, ADI-22523 IgG; assay: BLI; tip anti-ID IgG, solution ADI-22523 IgG
T5 construct: anti-CD3 IgG
Experimental: (§4) ForteBio affinity measurements were performed generally as previously described (Estep et al., MAbs. 2013 5(2):270-8). Briefly, ForteBio affinity measurements were performed by loading antibody IgG or Fabs on-line onto AHC sensors. Sensors were equilibrated off-line in assay buffer for 30 minutes and then monitored on-line for 60 seconds for baseline establishment. For avid binding measurement, sensors with loaded antibodies were exposed to IgG or Fab solutions for 3 minutes, afterwards they were transferred to assay buffer for 3 minutes for off-rate measurement. Kinetics data were fit using a 1:1 binding model in the data analysis software provided by ForteBio to obtain equilibrium dissociation constant (KD=koff/kₒₙ) values. In each column, tip-immobilized antibodies are listed first and solution antibodies second.

[6] = target: T6, ADI-48576; assay: SPR Carterra avidity, yeast anti-ID
T6 construct: pH-dependent anti-CD3 antibody made in CHO cells
Experimental: as §1, §2, §3

[7] = target: T7, ADI-26913 IgG; assay: SPR Carterra avidity, yeast anti-ID
T7 construct: anti-CD3 IgG
Experimental: as §1, §2, §3

[8] = target: T8, ADI-76361; assay: SPR Carterra avidity, yeast anti-ID
T8 construct: anti-CD3 antibody made in CHO cells, captured by anti-human Fc
Experimental: as §1, §2, §3

[9] = target: T9, ADI-26919; assay: SPR Carterra avidity, yeast anti-ID
T9 construct: anti-CD3 antibody made in CHO cells, captured by anti-human Fc
Experimental: as §1, §2, §3

[10] = target: T10, ADI-48587; assay: SPR Carterra avidity, yeast anti-ID
T10 construct: pH-dependent anti-CD3 antibody made in CHO cells
Experimental: as §1, §2, §3

[11] = target: T11, ADI-26924; assay: SPR Carterra avidity, yeast anti-ID
T11 construct: anti-CD3 antibody made in CHO cells, captured by anti-human Fc
Experimental: as §1, §2, §3

[12] = target: T12, ADI-70330; assay: SPR Carterra avidity, yeast anti-ID
T12 construct: anti-CD3 antibody made in CHO cells, captured by anti-human Fc
Experimental: as §1, §2, §3

[13] = target: T13, ADI-26912; assay: SPR Carterra avidity, yeast anti-ID
T13 construct: anti-CD3 antibody made in CHO cells, captured by anti-human Fc
Experimental: as §1, §2, §3

[14] = target: T14, ADI-26943; assay: SPR Carterra avidity, yeast anti-ID
T14 construct: anti-CD3 antibody made in CHO cells, captured by anti-human Fc
Experimental: as §1, §2, §3

[15] = target: T15, ADI-67450; assay: SPR Carterra avidity, yeast anti-ID
T15 construct: anti-CD3 antibody made in CHO cells, captured by anti-human Fc
Experimental: as §1, §2, §3

[16] = target: T16, ADI-50024; assay: SPR Carterra avidity, yeast anti-ID
T16 construct: anti-CD3 antibody made in CHO cells, captured by anti-human Fc
Experimental: as §1, §2, §3

[17] = target: T17, ADI-74965; assay: SPR Carterra avidity, yeast anti-ID
T17 construct: pH-dependent anti-CD3 antibody made in CHO cells
Experimental: as §1, §2, §3

[18] = target: T18, ADI-26915; assay: SPR Carterra avidity, yeast anti-ID
T18 construct: anti-CD3 antibody made in CHO cells, captured by anti-human Fc
Experimental: as §1, §2, §3

[19] = target: T19, ADI-48592; assay: SPR Carterra avidity, yeast anti-ID
T19 construct: pH-dependent anti-CD3 antibody made in CHO cells
Experimental: as §1, §2, §3

[20] = target: T20, ADI-76358; assay: SPR Carterra avidity, yeast anti-ID
T20 construct: anti-CD3 antibody made in CHO cells, captured by anti-human Fc
Experimental: as §1, §2, §3

[21] = target: T21, ADI-70327; assay: SPR Carterra avidity, yeast anti-ID
T21 construct: anti-CD3 antibody made in CHO cells, captured by anti-human Fc
Experimental: as §1, §2, §3

[22] = target: T22, ADI-67445; assay: SPR Carterra avidity, yeast anti-ID
T22 construct: anti-CD3 antibody made in CHO cells, captured by anti-human Fc
Experimental: as §1, §2, §3

[23] = target: T23, ADI-48650; assay: SPR Carterra avidity, yeast anti-ID
T23 construct: pH-dependent anti-CD3 antibody made in CHO cells
Experimental: as §1, §2, §3

[24] = target: T24, CTL-62223; assay: SPR Carterra avidity, yeast anti-ID
T24 construct: also called mosunetuzumab
Experimental: as §1, §2, §3

[25] = target: T25, ADI-74968; assay: SPR Carterra avidity, yeast anti-ID
T25 construct: pH-dependent anti-CD3 antibody made in CHO cells
Experimental: as §1, §2, §3

[26] = target: T26, ADI-26909; assay: SPR Carterra avidity, yeast anti-ID
T26 construct: anti-CD3 antibody made in CHO cells, captured by anti-human Fc
Experimental: as §1, §2, §3

[27] = target: T27, ADI-76360; assay: SPR Carterra avidity, yeast anti-ID
T27 construct: anti-CD3 antibody made in CHO cells, captured by anti-human Fc
Experimental: as §1, §2, §3

[28] = target: T28, ADI-70326; assay: SPR Carterra avidity, yeast anti-ID
T28 construct: anti-CD3 antibody made in CHO cells, captured by anti-human Fc
Experimental: as §1, §2, §3

[29] = target: T29, ADI-26906 IgG; assay: SPR Carterra avidity, yeast anti-ID
T29 construct: anti-CD3 IgG
Experimental: as §1, §2, §3

[30] = target: T30, ADI-67447; assay: SPR Carterra avidity, yeast anti-ID
T30 construct: anti-CD3 antibody made in CHO cells, captured by anti-human Fc
Experimental: as §1, §2, §3

[31] = target: T31, ADI-76357; assay: SPR Carterra avidity, yeast anti-ID
T31 construct: anti-CD3 antibody made in CHO cells, captured by anti-human Fc
Experimental: as §1, §2, §3

[32] = target: T32, ADI-26916 IgG; assay: SPR Carterra avidity, yeast anti-ID
T32 construct: anti-CD3 IgG
Experimental: as §1, §2, §3

[33] = target: T33, ADI-74966; assay: SPR Carterra avidity, yeast anti-ID
T33 construct: pH-dependent anti-CD3 antibody made in CHO cells
Experimental: as §1, §2, §3

[34] = target: T34, ADI-76362; assay: SPR Carterra avidity, yeast anti-ID
T34 construct: anti-CD3 antibody made in CHO cells, captured by anti-human Fc
Experimental: as §1, §2, §3

[35] = target: T35, ADI-22523 Fab; assay: BLI; tip anti-ID IgG, solution ADI-22523 Fab
T35 construct: anti-CD3 Fab by papain digestion of the IgG
Experimental: as §4

[36] = target: T9, ADI-26919; assay: SPR Carterra avidity, yeast anti-ID, *koff limit
Experimental: as §1, §2, §3

[37] = target: T1, ADI-76359; assay: SPR Carterra avidity, yeast anti-ID
Experimental: as §1, §2, §3

[38] = target: T2, ADI-26920 IgG; assay: SPR Carterra avidity, yeast anti-ID
Experimental: as §1, §2, §3

[39] = target: T3, ADI-74967; assay: SPR Carterra avidity, yeast anti-ID
Experimental: as §1, §2, §3

[40] = target: T4, ADI-26921 IgG; assay: SPR Carterra avidity, yeast anti-ID
Experimental: as §1, §2, §3

[41] = target: T36, CTL-62228; assay: SPR Carterra, yeast anti-ID
T36 construct: also called glofitamab
Experimental: as §1, §2, §3

[42] = target: T37, CTL-62227; assay: SPR Carterra, yeast anti-ID
T37 construct: also called odronextamab
Experimental: as §1, §2, §3

[43] = target: T38, CTL-62240; assay: SPR Carterra, yeast anti-ID
T38 construct: also called ONO-4685
Experimental: as §1, §2, §3

T15 sequence (VH, as listed by the source limits assumed, chain 1 of 2): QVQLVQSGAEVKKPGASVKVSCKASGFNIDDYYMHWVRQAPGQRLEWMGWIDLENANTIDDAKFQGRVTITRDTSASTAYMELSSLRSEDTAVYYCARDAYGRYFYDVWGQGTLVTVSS
T15 sequence (VL, as listed by the source limits assumed, chain 2 of 2): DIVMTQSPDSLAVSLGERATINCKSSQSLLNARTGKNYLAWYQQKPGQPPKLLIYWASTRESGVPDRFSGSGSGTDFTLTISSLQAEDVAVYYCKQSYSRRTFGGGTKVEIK
T14 sequence (VH, as listed by the source, chain 1 of 2): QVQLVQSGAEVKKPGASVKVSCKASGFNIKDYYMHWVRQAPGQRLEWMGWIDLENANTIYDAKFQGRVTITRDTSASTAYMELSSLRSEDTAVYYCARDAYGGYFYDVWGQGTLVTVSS
T14 sequence (VL, as listed by the source, chain 2 of 2): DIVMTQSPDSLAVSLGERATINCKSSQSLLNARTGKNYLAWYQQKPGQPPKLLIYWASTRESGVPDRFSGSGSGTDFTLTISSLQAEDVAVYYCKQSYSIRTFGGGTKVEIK
T16 sequence (VH, as listed by the source limits assumed, chain 1 of 2): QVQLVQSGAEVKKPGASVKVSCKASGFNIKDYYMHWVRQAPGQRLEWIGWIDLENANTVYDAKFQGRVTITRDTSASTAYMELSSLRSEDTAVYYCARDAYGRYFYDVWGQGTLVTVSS
T16 sequence (VL, as listed by the source limits assumed, chain 2 of 2): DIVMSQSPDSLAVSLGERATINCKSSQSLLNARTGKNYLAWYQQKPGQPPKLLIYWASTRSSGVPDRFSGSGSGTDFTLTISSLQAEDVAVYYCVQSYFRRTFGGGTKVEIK
T1 sequence (VH, as listed by the source, chain 1 of 2): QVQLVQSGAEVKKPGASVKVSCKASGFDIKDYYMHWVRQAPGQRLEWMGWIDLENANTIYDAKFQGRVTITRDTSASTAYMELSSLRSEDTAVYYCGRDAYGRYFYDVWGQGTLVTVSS
T1 sequence (VL, as listed by the source, chain 2 of 2): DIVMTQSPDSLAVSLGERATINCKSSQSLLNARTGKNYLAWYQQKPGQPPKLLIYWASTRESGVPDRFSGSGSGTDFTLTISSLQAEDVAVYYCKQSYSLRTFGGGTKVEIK
T32 sequence (VH, as listed by the source, chain 1 of 2): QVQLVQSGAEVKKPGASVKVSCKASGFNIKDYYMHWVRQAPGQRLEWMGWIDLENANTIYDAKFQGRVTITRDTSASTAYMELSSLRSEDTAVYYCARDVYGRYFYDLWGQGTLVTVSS
T34 sequence (VH, as listed by the source, chain 1 of 2): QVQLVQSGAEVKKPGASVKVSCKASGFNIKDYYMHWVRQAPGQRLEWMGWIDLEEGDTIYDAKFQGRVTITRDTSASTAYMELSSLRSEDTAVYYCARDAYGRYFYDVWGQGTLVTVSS
T4 sequence (VH, as listed by the source limits assumed, chain 1 of 2): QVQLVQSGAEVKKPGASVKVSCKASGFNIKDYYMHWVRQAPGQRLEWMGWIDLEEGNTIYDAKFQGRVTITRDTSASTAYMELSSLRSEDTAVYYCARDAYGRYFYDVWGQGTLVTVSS
T5 sequence (VH, as listed by the source limits assumed, chain 1 of 2): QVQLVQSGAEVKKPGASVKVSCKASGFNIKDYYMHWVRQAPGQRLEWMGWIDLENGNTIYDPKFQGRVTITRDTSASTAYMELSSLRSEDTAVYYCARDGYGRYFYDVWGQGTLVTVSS
T5 sequence (VL, as listed by the source limits assumed, chain 2 of 2): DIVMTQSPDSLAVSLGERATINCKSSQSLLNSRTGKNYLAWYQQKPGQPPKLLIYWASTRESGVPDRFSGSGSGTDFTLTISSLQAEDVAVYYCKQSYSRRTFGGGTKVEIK
T2 sequence (VH, as listed by the source limits assumed, chain 1 of 2): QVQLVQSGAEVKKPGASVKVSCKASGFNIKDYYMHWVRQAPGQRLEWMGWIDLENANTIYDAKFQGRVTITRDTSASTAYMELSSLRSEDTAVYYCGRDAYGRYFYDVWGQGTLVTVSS
T31 sequence (VH, as listed by the source, chain 1 of 2): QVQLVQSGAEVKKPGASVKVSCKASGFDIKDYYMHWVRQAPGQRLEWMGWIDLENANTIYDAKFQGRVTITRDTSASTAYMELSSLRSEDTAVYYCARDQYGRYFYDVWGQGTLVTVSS
T30 sequence (VH, as listed by the source limits assumed, chain 1 of 2): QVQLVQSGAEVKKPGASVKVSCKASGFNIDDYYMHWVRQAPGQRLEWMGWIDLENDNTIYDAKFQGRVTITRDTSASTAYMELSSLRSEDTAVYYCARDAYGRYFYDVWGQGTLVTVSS
T28 sequence (VH, as listed by the source limits assumed, chain 1 of 2): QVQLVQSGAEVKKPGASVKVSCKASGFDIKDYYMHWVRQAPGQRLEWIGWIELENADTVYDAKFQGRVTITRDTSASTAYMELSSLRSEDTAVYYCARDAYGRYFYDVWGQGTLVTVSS
T23 sequence (VH, as listed by the source, chain 1 of 2): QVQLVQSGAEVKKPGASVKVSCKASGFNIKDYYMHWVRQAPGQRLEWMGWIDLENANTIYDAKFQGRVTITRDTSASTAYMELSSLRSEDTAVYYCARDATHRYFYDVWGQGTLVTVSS
T23 sequence (VL, as listed by the source, chain 2 of 2): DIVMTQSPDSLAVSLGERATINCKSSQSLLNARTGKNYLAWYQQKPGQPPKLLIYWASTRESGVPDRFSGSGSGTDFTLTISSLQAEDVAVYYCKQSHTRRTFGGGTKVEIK
T20 sequence (VH, as listed by the source, chain 1 of 2): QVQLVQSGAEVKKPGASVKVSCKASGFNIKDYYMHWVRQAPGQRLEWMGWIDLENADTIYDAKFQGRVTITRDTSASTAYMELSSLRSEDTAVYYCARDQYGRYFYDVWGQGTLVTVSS
T19 sequence (VH, as listed by the source, chain 1 of 2): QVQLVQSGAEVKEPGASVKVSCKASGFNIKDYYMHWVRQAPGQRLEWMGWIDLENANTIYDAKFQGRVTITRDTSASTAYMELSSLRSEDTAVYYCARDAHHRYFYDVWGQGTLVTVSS
T19 sequence (VL, as listed by the source, chain 2 of 2): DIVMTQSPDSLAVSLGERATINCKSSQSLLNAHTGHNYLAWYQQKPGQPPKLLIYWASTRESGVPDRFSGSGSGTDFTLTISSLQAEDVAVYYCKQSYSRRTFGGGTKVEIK
T6 sequence (VH, as listed by the source, chain 1 of 2): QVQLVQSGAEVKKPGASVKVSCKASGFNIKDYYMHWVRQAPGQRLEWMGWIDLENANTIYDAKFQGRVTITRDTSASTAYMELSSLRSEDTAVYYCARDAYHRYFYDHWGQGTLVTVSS
T6 sequence (VL, as listed by the source, chain 2 of 2): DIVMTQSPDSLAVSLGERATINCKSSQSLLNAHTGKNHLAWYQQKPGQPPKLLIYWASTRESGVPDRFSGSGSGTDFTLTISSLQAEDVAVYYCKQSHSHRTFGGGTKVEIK
T18 sequence (VH, as listed by the source, chain 1 of 2): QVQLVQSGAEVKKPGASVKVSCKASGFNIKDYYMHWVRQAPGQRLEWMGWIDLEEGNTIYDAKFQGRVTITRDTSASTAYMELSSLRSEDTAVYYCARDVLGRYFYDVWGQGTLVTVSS
T27 sequence (VH, as listed by the source, chain 1 of 2): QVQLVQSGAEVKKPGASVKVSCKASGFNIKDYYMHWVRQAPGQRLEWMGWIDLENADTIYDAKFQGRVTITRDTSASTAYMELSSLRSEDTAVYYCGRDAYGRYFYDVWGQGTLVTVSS

B1: ADI-34137 (antibody, V domains shown)
VH: QVQLVQSGAEVKKPGSSVKVSCKASGGTFSSYAISWVRQAPGQGLEWMGGIIPIFGTANYAQKFQGRVTITADESTSTAYMELSSLRSEDTAVYYCARGAPNYYGSGGYDDGWFDPWGQGTLVTVSS
VL: EIVLTQSPGTLSLSPGERATLSCRASQSVSSSYLAWYQQKPGQAPRLLIYGASSRATGIPDRFSGSGSGTDFTLTISRLEPEDFAVYYCQQFGRFPTFGGGTKVEIK
notes: anti-ID IgG
Kd [1]: 0.059 nM | Kd [2]: 0.088 nM | Kd [3]: 0.12 nM | Kd [4]: 0.048 nM | Kd [5]: 0.63 nM | binding result [6]: binds | Kd [7]: 0.3 nM | Kd [8]: 0.054 nM | Kd [9]: 0.14 nM | Kd [10]: 0.88 nM | Kd [11]: 0.19 nM | Kd [12]: 0.3 nM | binding result [13]: binds | Kd [14]: 0.17 nM | Kd [15]: 0.92 nM | Kd [16]: 0.39 nM | binding result [17]: binds | Kd [18]: 14 nM | binding result [19]: binds | Kd [20]: 0.96 nM | Kd [21]: 0.95 nM | Kd [22]: 0.37 nM | binding result [23]: binds | Kd [24]: 1.8 nM | Kd [25]: 0.76 nM | Kd [26]: 0.32 nM | Kd [27]: 0.082 nM | binding result [28]: binds | Kd [29]: 0.33 nM | Kd [30]: 0.22 nM | Kd [31]: 0.086 nM | Kd [32]: 0.31 nM | Kd [33]: 0.21 nM | Kd [34]: 0.22 nM | Kd [35]: 14.8 nM

B2: ADI-34132 (antibody, V domains shown)
VH: QVQLVQSGAEVKKPGSSVKVSCKASGGTFSSYAISWVRQAPGQGLEWMGGIIPIFGTANYAQKFQGRVTITADESTSTAYMELSSLRSEDTAVYYCARGAPNYYGSGGYDDGWFDPWGQGTLVTVSS
VL: DIQLTQSPSSLSASVGDRVTITCRASQSISSYLNWYQQKPGKAPKLLIYAASNLQSGVPSRFSGSGSGTDFTLTISSLQPEDFATYYCQQTLHTPITFGGGTKVEIK
notes: anti-ID IgG
Kd [36]: 0.044 nM | Kd [5]: 84.9 nM | binding result [6]: binds | Kd [7]: 0.93 nM | Kd [8]: 0.15 nM | binding result [10]: binds | Kd [11]: 0.2 nM | binding result [12]: binds | Kd [37]: 0.12 nM | binding result [13]: binds | Kd [14]: 0.15 nM | binding result [15]: binds | Kd [38]: 0.15 nM | Kd [39]: 0.28 nM | Kd [40]: 0.36 nM | Kd [16]: 0.35 nM | binding result [17]: binds | binding result [18]: binds | binding result [19]: binds | binding result [20]: binds | binding result [21]: binds | Kd [22]: 0.65 nM | binding result [23]: binds | Kd [24]: 0.99 nM | binding result [25]: binds | Kd [26]: 0.9 nM | Kd [27]: 0.61 nM | binding result [28]: binds | Kd [29]: 0.16 nM | Kd [30]: 0.56 nM | Kd [31]: 0.57 nM | Kd [32]: 0.6 nM | Kd [33]: 0.58 nM | Kd [34]: 0.82 nM | binding result [41]: no binding (tested: up to 200 nM) | binding result [42]: no binding (tested: up to 200 nM) | binding result [43]: no binding (tested: up to 200 nM)

— patent US20250019439A1 (Adimab, published 2025)
